Five molecules from PMC12117401 can be followed below.

This series concerns the target Nb55 (Lama glama (llama immune VHH library), UniProt PDB:9GXH_1). The series can be described thus: ITC.
In the case of GACCCCGCCCCCGGCCCGCCCCCG (structured_DNA) [VEGF], the binding result is recorded as “no binding”.

For the molecule GGTGGGTGTGGTTGG (structured_DNA) [TBA T4G], the binding result is on record as “no binding”.

On to GGGCGCGGGAGGAATTGGGCGGG (structured_DNA) [Bcl2], for which the binding result was “no binding”.

With GAAAAACCCCCTTTTTC (structured_DNA) [B-DNA hairpin], the binding result is on record as “no binding”.

For the molecule TGAGGGTGGGTAGGGTGGGTAA (structured_DNA) [c-Myc], the binding result is listed as “no binding”.
